Laboratory results as given in article PMC7480105, “Wbox2: A clathrin terminal domain–derived peptide inhibitor of clathrin-mediated endocytosis” (The Journal of Cell Biology, 2020).
No end group written: not given here.

B1: TDD: clathrin heavy chain fragment (residues 1–1,074): N-terminal domain plus distal leg, overexpressed by Tet-off adenovirus (protein)
chain: MAQILPIRFQEHLQLQNLGINPANIGFSTLTMESDKFICIREKVGEQAQVVIIDMNDPSNPIRRPISADSAIMNPASKVIALKAGKTLQIFNIEMKSKMKAHTMTDDVTFWKWISLNTVALVTDNAVYHWSMEGESQPVKMFDRHSSLAGCQIINYRTDAKQKWLLLTGISAQQNRVVGAMQLYSVDRKVSQPIEGHAASFAQFKMEGNAEESTLFCFAVRGQAGGKLHIIEVGTPPTGNQPFPKKAVDVFFPPEAQNDFPVAMQISEKHDVVFLITKYGYIHLYDLETGTCIYMNRISGETIFVTAPHEATAGIIGVNRKGQVLSVCVEEENIIPYITNVLQNPDLALRMAVRNNLAGAEELFARKFNALFAQGNYSEAAKVAANAPKGILRTPDTIRRFQSVPAQPGQTSPLLQYFGILLDQGQLNKYESLELCRPVLQQGRKQLLEKWLKEDKLECSEELGDLVKSVDPTLALSVYLRANVPNKVIQCFAETGQVQKIVLYAKKVGYTPDWIFLLRNVMRISPDQGQQFAQMLVQDEEPLADITQIVDVFMEYNLIQQCTAFLLDALKNNRPSEGPLQTRLLEMNLMHAPQVADAILGNQMFTHYDRAHIAQLCEKAGLLQRALEHFTDLYDIKRAVVHTHLLNPEWLVNYFGSLSVEDSLECLRAMLSANIRQNLQICVQVASKYHEQLSTQSLIELFESFKSFEGLFYFLGSIVNFSQDPDVHFKYIQAACKTGQIKEVERICRESNCYDPERVKNFLKEAKLTDQLPLIIVCDRFDFVHDLVLYLYRNNLQKYIEIYVQKVNPSRLPVVIGGLLDVDCSEDVIKNLILVVRGQFSTDELVAEVEKRNRLKLLLPWLEARIHEGCEEPATHNALAKIYIDSNNNPERFLRENPYYDSRVVGKYCEKRDPHLACVAYERGQCDLELINVCNENSLFKSLSRYLVRRKDPELWGSVLLESNPYRRPLIDQVVQTALSETQDPEEVSVTVKAFMTADLPNELIELLEKIVLDNSVFSEHRNLQNLLILTAIKADRTRVMEYINRLDNYDAPDIANIAISNELFEEAFAIFRK
modifications: left off: HA, N-terminal, kept
notes: clathrin heavy chain fragment (residues 1–1,074): N-terminal domain plus distal leg, overexpressed by Tet-off adenovirus
B2: TD: clathrin heavy chain N-terminal domain, generated by mutating T495 to a stop codon in TDD (protein, UniProt Q00610 1-494, looked up, fragment)
chain: MAQILPIRFQEHLQLQNLGINPANIGFSTLTMESDKFICIREKVGEQAQVVIIDMNDPSNPIRRPISADSAIMNPASKVIALKAGKTLQIFNIEMKSKMKAHTMTDDVTFWKWISLNTVALVTDNAVYHWSMEGESQPVKMFDRHSSLAGCQIINYRTDAKQKWLLLTGISAQQNRVVGAMQLYSVDRKVSQPIEGHAASFAQFKMEGNAEESTLFCFAVRGQAGGKLHIIEVGTPPTGNQPFPKKAVDVFFPPEAQNDFPVAMQISEKHDVVFLITKYGYIHLYDLETGTCIYMNRISGETIFVTAPHEATAGIIGVNRKGQVLSVCVEEENIIPYITNVLQNPDLALRMAVRNNLAGAEELFARKFNALFAQGNYSEAAKVAANAPKGILRTPDTIRRFQSVPAQPGQTSPLLQYFGILLDQGQLNKYESLELCRPVLQQGRKQLLEKWLKEDKLECSEELGDLVKSVDPTLALSVYLRANVPNKVIQCFAE
modifications: HA tag
notes: clathrin heavy chain N-terminal domain, generated by mutating T495 to a stop codon in TDD

How the values were obtained:
Assay type in all cases: cell-based
[1] = tested on: TfnR uptake via CME in ARPE/HPV cells; test: TfnR uptake (in-cell ELISA) after peptide preincubation; details: 60-min preincubation with peptide at 37°C, concentration curves, n = 4 replicates (Fig. 7 F), read-out: IC50 for inhibition of TfnR uptake
Procedure: Peptides encoding the TAT sequence (YGRKKRRQRRR) followed by 10 amino acid sequences covering the four reported binding sites on the clathrin terminal domain (Fig. 7 A) were synthesized by GenScript (Piscataway, NJ) with >95% purity. Peptides were dissolved in dH2O and further diluted in PBS4+ (1× PBS buffer plus 0.2% BSA, 1 mM CaCl2, 1 mM MgCl2, and 5 mM D-glucose) or cell culture medium (for imaging) when applied to cells. Peptide solutions were stored at −20°C.
Internalization of TfnR, CD44, CD59, and Biotin-Tfn was quantified by in-cell ELISA following established protocols ([Conner and Schmid, 2003]; [Srinivasan et al., 2018]). Cells were seeded in 96-well plates (Costar) at 60–70% confluence and grown overnight. Before the assay, cells were starved for 30 min in PBS4+ at 37°C or treated with peptides in PBS4+ at 37°C for the indicated times. After starvation, cells were moved to 4°C, and culture medium was replaced with cold PBS4+ containing 5 µg/ml HTR-D65 (anti-TfnR mAb; [Schmid and Smythe, 1991]), anti-human CD44 or anti-human CD59 (BD PharMingen) or 5 µg/ml Biotin-Tfn (Sigma-Aldrich). For single-round assays, the above reagents were kept with cells for 20 min at 4°C and then washed out before uptake assay. For multiround assays, the above reagents were kept with cells throughout the uptake process. In parallel, some cells were kept at 4°C for the measurement of surface-bound ligands and blank controls, and some were incubated in a 37°C water bath for the indicated times. Acid wash (0.2 M acetic acid and 0.2 M NaCl, pH 2.3) was used to remove surface-bound antibodies, followed by washing with cold PBS. All were fixed with 4% PFA (Electron Microscopy Sciences) in PBS for 30 min at 37°C. 0.1% Triton X-100 was added for 6.5 min to permeabilize cells, followed by addition of blocking buffer. HTR-D65–, CD44-, and CD59-treated cells were blocked with Q-PBS (PBS, 2% BSA, 0.1% lysine, and 0.01% saponin, pH 7.4), and Biotin-Tfn–treated cells were blocked with 2% casein. Surface-bound and internalized HTR-D65, CD44, and CD59 were probed with goat anti-mouse antibody conjugated with HRP (Sigma-Aldrich), and Biotin-Tfn was probed with Streptavidin-POD conjugate (Sigma-Aldrich). Color was developed using o-phenylenediamine dihydrochloride (OPD) solution (Sigma-Aldrich), and absorbance was read at 490 nm (Biotek Synergy H1 Hybrid Reader). Cell number variation among wells was accounted for by bicinchoninic acid assay reading at 562 nm.

[2] = tested on: TfnR uptake in ARPE cells; test: TfnR uptake with TDD overexpression (Tet-off adenovirus); details: maximum TDD expression, adenovirus-infected ARPE cells, n = 4 replicates (Fig. 2 C)
Procedure: TDD, TD, and tTA adenoviruses were applied to cells directly in culture medium. Pilot experiments were conducted to optimize the volumes of each virus preparation need for uniform infection (Fig. S1, A and B). Experiments were conducted after 12–18 h, allowing for adequate viral infection and protein expression. Protein expression could be regulated by adjusting Tet concentration. All experiments were performed in the absence of Tet, allowing for maximum protein expression, except for Fig. 1, A–C.
(§1) Internalization of TfnR, CD44, CD59, and Biotin-Tfn was quantified by in-cell ELISA following established protocols ([Conner and Schmid, 2003]; [Srinivasan et al., 2018]). Cells were seeded in 96-well plates (Costar) at 60–70% confluence and grown overnight. Before the assay, cells were starved for 30 min in PBS4+ at 37°C or treated with peptides in PBS4+ at 37°C for the indicated times. After starvation, cells were moved to 4°C, and culture medium was replaced with cold PBS4+ containing 5 µg/ml HTR-D65 (anti-TfnR mAb; [Schmid and Smythe, 1991]), anti-human CD44 or anti-human CD59 (BD PharMingen) or 5 µg/ml Biotin-Tfn (Sigma-Aldrich). […] Color was developed using o-phenylenediamine dihydrochloride (OPD) solution (Sigma-Aldrich), and absorbance was read at 490 nm (Biotek Synergy H1 Hybrid Reader). Cell number variation among wells was accounted for by bicinchoninic acid assay reading at 562 nm.

[3] = tested on: Tfn recycling; test: Biotin-Tfn recycling assay; details: TDD expression (0 ng/ml Tet), ARPE/HPV cells, 10- or 30-min pulse (Fig. 2 D)
Procedure: Biotin-Tfn recycling was conducted according to previous protocols ([Chen et al., 2017]). Cells were cultured in biotin-free medium for 48 h, seeded in 96-well plates (Costar) at 60–70% confluence, and grown overnight. Before assay, cells were starved for 45 min in PBS4+ at 37°C or treated with peptides in PBS4+ at 37°C for the indicated times. After starvation, cells were supplied with 100 µl of 5 µg/ml Biotin-Tfn in PBS4+ for 10 or 30 min to load Biotin-Tfn into cells. When loading was complete, cells were cooled down to 4°C and washed with PBS4+ to remove extra Biotin-Tfn. Some cells were kept at 4°C as loading controls. The remaining cells were first treated with avidin and biocytin to mask the surface-bound Biotin-Tfn, and then incubated at 37°C for the indicated times. All the cells were then acid washed and fixed with 4% PFA as above. Blocking steps were the same as for the Biotin-Tfn uptake assay. Data were expressed as percentage of total intracellular ligand remaining relative to the initial load.

[4] = tested on: fluid phase uptake of HRP in ARPE/HPV cells; test: Fluid-phase uptake of HRP; details: TDD expression (0 ng/ml Tet), ARPE/HPV cells (Fig. 2 E)
Procedure: Fluid-phase uptake assays were conducted using HRP (Sigma-Aldrich) as the readout. Cells were seeded in 96-well plates (Costar) at 60–70% confluence and grown overnight. Before assay, cell culture medium was changed to PBS4+ and cooled down to 4°C. Ice-cold HRP solution (1 mg/ml) was added to cells and moved to a 37°C water bath for 30 min. In parallel, some cells were kept at 4°C as blank control. All the cells were acid washed (0.2 M acetic acid and 0.2 M NaCl, pH 2.3) and lysed with ELISA blocking buffer (1% Triton X-100, 0.1% SDS, 0.2% BSA, 50 mM NaCl, and 1 mM Tris, pH 7.4) for 1 h at 4°C. Color was developed using OPD solution (Sigma-Aldrich), and absorbance was read at 490 nm (Biotek Synergy H1 Hybrid Reader).

[5] = tested on: CD44 uptake in ARPE/HPV cells; test: CD44 uptake (clathrin-independent endocytosis marker); details: TDD expression (0 ng/ml Tet), ARPE/HPV cells (Fig. 2 F)
Procedure: as §1, with “(Sigma-Aldrich). For single-round assays, the above reagents were kept with cells for 20 min at 4°C and then washed out before uptake assay. For multiround assays, the above reagents were kept with cells throughout the uptake process. In parallel, some cells were kept at 4°C for the measurement of surface-bound ligands and blank controls, and some were incubated in a 37°C water bath for the indicated times.” for “(Sigma-Aldrich).”

[6] = tested on: CD59 uptake in ARPE/HPV cells; test: CD59 uptake (clathrin-independent endocytosis marker); details: TDD expression (0 ng/ml Tet), ARPE/HPV cells (Fig. 2 F)
Procedure: as §1, with “(Sigma-Aldrich). For single-round assays, the above reagents were kept with cells for 20 min at 4°C and then washed out before uptake assay. For multiround assays, the above reagents were kept with cells throughout the uptake process. In parallel, some cells were kept at 4°C for the measurement of surface-bound ligands and blank controls, and some were incubated in a 37°C water bath for the indicated times.” for “(Sigma-Aldrich).”

[7] = tested on: association of AP2 with the membrane pellet, ARPE cells; test: Subcellular fractionation, AP2 in membrane pellet; details: cells with TDD overexpression, n = 3; control cells 59 ± 14% (Fig. 5 E)
Procedure: Confluent ARPE or ARPE/HPV cells in a 10-cm dish were detached with 3 ml of 50 mM EDTA at 37°C for 10 min. Extra EDTA after detachment was neutralized with 0.2 ml of 1 M MgCl2. Cells were then spun down at 500 g for 3 min and washed with cold PBS. After another spin to remove PBS, cells were resuspended in 0.5 ml ice-cold lysis buffer (25 mM Hepes, 250 mM sucrose, 1 mM MgCl2, and 2 mM EGTA, pH 7.4). Cells were then lysed by five rounds of freeze–thaw cycle (rapid freezing in liquid nitrogen and slow thawing in room temperature water bath, followed by brief vortex and 10-s sonication). Intact cells and nuclei were removed by centrifugation for 2 min at 500 g. 0.1 ml of lysed sample was kept as total control, and the rest (0.4 ml) underwent ultracentrifugation at 4°C for 30 min at 110,000 g to separate membranes (pellet) from cytosol (supernatant). Supernatant was transferred to another low binding Eppendorf, and the pellet was resuspended with the same volume of lysis buffer (0.4 ml). Total, pellet, and supernatant were heat denatured in 1× sample buffer and probed by Western blotting.

[8] = tested on: ARPE/HPV eGFP-CLCa cells; test: TIRFM CCP dynamics with TDD/TD overexpression; details: TIRFM and cmeAnalysis (Fig. 3 C, Fig. 4 C)
Procedure: Cells were seeded on a gelatin-coated 22 × 22–mm cover glass (Corning; 2850-22) overnight and moved to fresh cell culture medium 30 min before being mounted on a 25 × 75–mm slide (Thermo Fisher Scientific; 3050). Imaging was conducted with a 60×, 1.49-NA Apo TIRF objective (Nikon) mounted on a Ti-Eclipse inverted microscope. Perfect focus was used during time-lapse imaging. TIRF penetration depth was ∼80 nm. Videos were acquired for 7.5 min at the rate of 1 frame/s for all live-cell imaging. For dual-color imaging, two sequential images of primary and secondary channel were taken within 1 s, and the video length was the same as single-channel imaging. Published cmeAnalysis software was used for CCP detection, tracking, and quantification ([Aguet et al., 2013]; [Jaqaman et al., 2008]; [Loerke et al., 2011]).

Molecule | IC50 [1] [µM] | inhibition of endocytic efficiency of TfnR [2] [%] | recycling of Tfn [3] | fluid phase uptake (HRP) [4] | CD44 uptake (CIE) [5] | CD59 uptake (CIE) [6] | association of AP2 with the membrane pellet [7] [%] | CCP initiation [8]
YGRKKRRQRRRLAGCQIINYR [Wbox1] | ~3 | – | – | – | – | – | – | –
B1 | – | 80 | not significantly perturbed | not significantly inhibited | not significantly inhibited | not significantly inhibited | 76 ± 14 | dramatically decreased
B2 | – | – | – | – | – | – | – | sufficient to suppress
